How the values were obtained:
[1] = biological target: ZIKV NS4A N-terminal peptide construct (residues 4–58) with N-terminal His-tag and linker (Zika virus (strain MR-766)); assay: AUC; sedimentation equilibrium; approx. 10, 20 and 40 µM in 50 mM Tris–HCl pH 7.3, 150 mM NaCl; 23,000, 28,000, 34,500 and 42,000 rpm; 280 nm; self-equilibrium models in SEDPHAT, monomer to dimer to trimer
[2] = biological target: ZIKV NS4A N-terminal peptide construct (residues 4–58) with N-terminal His-tag and linker (Zika virus (strain MR-766)); assay: AUC; sedimentation velocity; 50 mM Tris–HCl (pH 7.4), approx. 3–300 µM, 50,000 rpm, 20 °C, absorbance at 230 or 280 nm; c(s), c(s,ff0) and hybrid local continuous global discrete (non-interacting) analysis; no detergent or lipids

ZIKV NS4A N-terminal peptide construct (residues 4–58) with N-terminal His-tag and linker
percent of monomers in trimers at 50 µM [1]: 50%
stoichiometry N [1]: 3
stoichiometry N [2]: 3

From paper PMC10163220
